This note sets out measurements from PMC5103072, “Cryo-EM study of start codon selection during archaeal translation initiation” (Nature Communications, 2016).

This assay has as its target T1, Pa-aIF2γ (γ-subunit of archaeal translation initiation factor 2 from Pyrococcus abyssi), native version (Pyrococcus abyssi, UniProt Q9V1G0 1-411).
T1 construct: aIF2 γ-subunit from Pyrococcus abyssi, native (untagged) version; Stood in the assay as part of the aIF2 heterotrimer with GDPNP and Met-tRNA; The deposited models use the S. solfataricus ternary complex (PDB 3V11) as the fitted component; source: cells overproducing the subunit, mixed with cells overproducing α and β; heterotrimer purified (heating at 80 °C, Q-Hiload, S-Hiload, Superdex 200)
T1 sequence (looked up): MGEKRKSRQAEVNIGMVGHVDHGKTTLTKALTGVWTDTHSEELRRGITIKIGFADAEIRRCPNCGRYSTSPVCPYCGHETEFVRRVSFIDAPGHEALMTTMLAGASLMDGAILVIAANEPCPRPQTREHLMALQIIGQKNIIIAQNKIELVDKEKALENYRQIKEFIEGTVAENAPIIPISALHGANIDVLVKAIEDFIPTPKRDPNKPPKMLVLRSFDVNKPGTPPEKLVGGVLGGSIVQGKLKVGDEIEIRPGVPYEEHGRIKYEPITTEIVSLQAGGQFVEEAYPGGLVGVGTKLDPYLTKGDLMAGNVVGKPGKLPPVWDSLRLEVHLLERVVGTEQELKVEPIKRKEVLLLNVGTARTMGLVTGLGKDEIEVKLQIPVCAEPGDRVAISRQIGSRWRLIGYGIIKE
Description: cryo-EM structure; full 30S initiation complex (Pa-30S, synthetic mRNA, Met-tRNAfMet A1-U72, GDPNP, Pa-aIF1, Pa-aIF1A, Pa-aIF2) assembled at 51 °C in IC buffer (10 mM Hepes pH 7.5, 100 mM NH4Cl, 10 mM magnesium acetate, 3 mM 2-mercaptoethanol), purified on Talon; class IC0-P_(REMOTE), tRNA out of the P site, 5.34 Å overall resolution; known structures of homologous components fitted. To be noted: both partners purified.

B1: Pa-aIF2α (α-subunit of archaeal translation initiation factor 2 from Pyrococcus abyssi), N-terminally tagged version (natural protein, UniProt Q9V0E4 1-275, looked up)
chain: MPRRAREYPEEGEFVVATVKRIHNYGAFLELDEYPGKEAFMHISEVASTWVRNIRDYLKEGQKVVAKVIRVDPRKGHIDLSLRRVTQQQRKAKLQEFKRAQKAENLLKLAAEKLGKDFETAWREVWVPLEEEWGEVYAAFEDAAKDGIDVLKGHVPDEWLPVLKEIIDNYVEVPTVTIDAEFEITVPKPNGVEIIKEALIRARDRANKEKDVEVKFTYLGAPRYRIDITAPDYYKAEEVLESIAEEILRVIKEAGGEATLLRKEKRIKKVKKRKK
notes: aIF2 α-subunit from Pyrococcus abyssi, N-terminally tagged version; domains 1 and 2 (aIF2α-D12) and domain 3 (aIF2α-D3); the complex was purified on a Talon column by it; Stood in the assay as part of the aIF2 heterotrimer; source: cells overproducing the subunit, mixed with cells overproducing β and γ; heterotrimer purified (heating at 80 °C, Q-Hiload, S-Hiload, Superdex 200)
With B1, the binding result was “binds”.
